Common to all, as to experiment: cryo-EM structure
For experiment [1], the target named is Rad24-RFC clamp loader (Rad24, Rfc2, Rfc3, Rfc4, Rfc5) (S. cerevisiae, UniProt P32641;P40348;P38629;P40339;P38251).
The target in another experiment is T1, Ddc1 (S. cerevisiae, UniProt Q08949 1-612).
T1 sequence: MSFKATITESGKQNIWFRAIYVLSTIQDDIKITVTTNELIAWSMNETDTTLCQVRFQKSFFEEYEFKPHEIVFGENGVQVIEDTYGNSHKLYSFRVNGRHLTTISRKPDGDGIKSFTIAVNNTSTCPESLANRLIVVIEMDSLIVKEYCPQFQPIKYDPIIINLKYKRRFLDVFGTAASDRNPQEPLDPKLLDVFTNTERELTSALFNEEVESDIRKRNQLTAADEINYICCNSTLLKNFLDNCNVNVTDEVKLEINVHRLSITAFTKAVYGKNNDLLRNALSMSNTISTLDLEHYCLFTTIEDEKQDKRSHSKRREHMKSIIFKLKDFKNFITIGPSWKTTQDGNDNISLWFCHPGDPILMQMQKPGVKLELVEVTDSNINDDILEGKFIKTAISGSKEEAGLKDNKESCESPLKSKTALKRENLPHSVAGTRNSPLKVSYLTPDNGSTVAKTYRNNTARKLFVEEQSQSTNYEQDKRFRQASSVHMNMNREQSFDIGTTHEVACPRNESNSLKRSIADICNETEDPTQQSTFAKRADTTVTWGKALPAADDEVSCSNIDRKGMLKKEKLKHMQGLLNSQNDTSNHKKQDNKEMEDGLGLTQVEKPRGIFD

A further experiment has as its target T2, His-PK-Mec3 (S. cerevisiae, UniProt Q02574 1-474).
T2 sequence: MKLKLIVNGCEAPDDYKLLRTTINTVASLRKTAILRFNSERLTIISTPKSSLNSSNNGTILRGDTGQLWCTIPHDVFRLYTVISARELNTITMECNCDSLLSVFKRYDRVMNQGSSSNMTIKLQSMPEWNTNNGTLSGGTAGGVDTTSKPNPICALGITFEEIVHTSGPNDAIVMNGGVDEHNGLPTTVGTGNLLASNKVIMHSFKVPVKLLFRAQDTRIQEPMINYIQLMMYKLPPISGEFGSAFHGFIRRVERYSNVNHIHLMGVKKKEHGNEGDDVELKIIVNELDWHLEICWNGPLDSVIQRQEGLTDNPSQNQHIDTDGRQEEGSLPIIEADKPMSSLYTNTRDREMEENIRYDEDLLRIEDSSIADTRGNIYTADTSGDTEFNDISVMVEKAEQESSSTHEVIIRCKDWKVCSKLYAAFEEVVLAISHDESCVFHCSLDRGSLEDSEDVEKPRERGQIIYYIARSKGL

B1: 9-1-1 clamp (Ddc1–Mec3–Rad17) (complex)
chain 1: MSFKATITESGKQNIWFRAIYVLSTIQDDIKITVTTNELIAWSMNETDTTLCQVRFQKSFFEEYEFKPHEIVFGENGVQVIEDTYGNSHKLYSFRVNGRHLTTISRKPDGDGIKSFTIAVNNTSTCPESLANRLIVVIEMDSLIVKEYCPQFQPIKYDPIIINLKYKRRFLDVFGTAASDRNPQEPLDPKLLDVFTNTERELTSALFNEEVESDIRKRNQLTAADEINYICCNSTLLKNFLDNCNVNVTDEVKLEINVHRLSITAFTKAVYGKNNDLLRNALSMSNTISTLDLEHYCLFTTIEDEKQDKRSHSKRREHMKSIIFKLKDFKNFITIGPSWKTTQDGNDNISLWFCHPGDPILMQMQKPGVKLELVEVTDSNINDDILEGKFIKTAISGSKEEAGLKDNKESCESPLKSKTALKRENLPHSVAGTRNSPLKVSYLTPDNGSTVAKTYRNNTARKLFVEEQSQSTNYEQDKRFRQASSVHMNMNREQSFDIGTTHEVACPRNESNSLKRSIADICNETEDPTQQSTFAKRADTTVTWGKALPAADDEVSCSNIDRKGMLKKEKLKHMQGLLNSQNDTSNHKKQDNKEMEDGLGLTQVEKPRGIFD
chain 2: MKLKLIVNGCEAPDDYKLLRTTINTVASLRKTAILRFNSERLTIISTPKSSLNSSNNGTILRGDTGQLWCTIPHDVFRLYTVISARELNTITMECNCDSLLSVFKRYDRVMNQGSSSNMTIKLQSMPEWNTNNGTLSGGTAGGVDTTSKPNPICALGITFEEIVHTSGPNDAIVMNGGVDEHNGLPTTVGTGNLLASNKVIMHSFKVPVKLLFRAQDTRIQEPMINYIQLMMYKLPPISGEFGSAFHGFIRRVERYSNVNHIHLMGVKKKEHGNEGDDVELKIIVNELDWHLEICWNGPLDSVIQRQEGLTDNPSQNQHIDTDGRQEEGSLPIIEADKPMSSLYTNTRDREMEENIRYDEDLLRIEDSSIADTRGNIYTADTSGDTEFNDISVMVEKAEQESSSTHEVIIRCKDWKVCSKLYAAFEEVVLAISHDESCVFHCSLDRGSLEDSEDVEKPRERGQIIYYIARSKGL
chain 3: MRINSELANKFSASTVHLEHITTALSCLTPFGSKDDVLIFIDADGLSFVRENNHVIKIQLLLSRELFMSYSYRNETEDHMKLCVKINHILDSVSVMNRNSDDIVECTLSYDGHGSPFVLIFEDSFISERVEYSTYLIKDFDTNGLELDRERISFEAIIKGEALHSALKDLKEIGCKECYVYAKTEANDENVFALISKSQLGFSKIKLPSNRSILEKLQVFDGDSTTVIDGFAVIGFFDFTSFDKIRKSTKIASKVLFRMDVHGVLSVNILSQTDDVIITDTTRPSNNRPGSIRQLQLPKDYPGIVIEVCMLEKESIDEAAQTEIELLMETNELGNRNSFKKSTIRKRYGTDKGNETSNDNLLQLNGKKIKLPSEEENNKNRESEDEENHCKYPTKDIPIFF
Consider B1, for which the binding result in experiment [1] is reported as “binds”.

B2: Rad17 (natural protein)
chain: MRINSELANKFSASTVHLEHITTALSCLTPFGSKDDVLIFIDADGLSFVRENNHVIKIQLLLSRELFMSYSYRNETEDHMKLCVKINHILDSVSVMNRNSDDIVECTLSYDGHGSPFVLIFEDSFISERVEYSTYLIKDFDTNGLELDRERISFEAIIKGEALHSALKDLKEIGCKECYVYAKTEANDENVFALISKSQLGFSKIKLPSNRSILEKLQVFDGDSTTVIDGFAVIGFFDFTSFDKIRKSTKIASKVLFRMDVHGVLSVNILSQTDDVIITDTTRPSNNRPGSIRQLQLPKDYPGIVIEVCMLEKESIDEAAQTEIELLMETNELGNRNSFKKSTIRKRYGTDKGNETSNDNLLQLNGKKIKLPSEEENNKNRESEDEENHCKYPTKDIPIFF
On to B2, for which the binding result in the experiment with Ddc1 and in the experiment with His-PK-Mec3 was “binds” each time.

Values taken from doi:10.1101/2021.10.01.462756 (bioRxiv, 2021).
